Source: patent US20200277373A1, “ANTI-TREM2 ANTIBODIES AND METHODS OF USE THEREOF” (Denali Therapeutics Inc., priority 2017, published 2020)
One block for each molecule: values may come before it.

Legend:
[1] = system: human macrophages; test: Signaling pathway Alpha-LISA (pSYK, pERK1/2, pGSK3-beta, pAKT) in human macrophages; type: cell-based; conditions: 15 minutes
Description: Anti-TREM2 antibodies were characterized for activation of several signaling pathways, SYK, ERK1/2, AKT and GSK3-beta. Human macrophages differentiated from peripheral monocytes were plated in 96-well plates at a density of 100,000 cell/well. The assay was tested in three conditions (0%, 0.5%, and 10% FBS in the media) for 3 hours. Cells were stimulated with the antibody RS9.F6, 24B4.A1, 8A11.B1, 3D3.A1, 54C2.A1, isotype control IgG2ak, rat anti-TREM2 from R&D, isotype control rat IgG2b, or no treatment (NT) for 15 minutes. The cell lysates were measured for p-Y525/526-SYK, p-T202/Y204-ERK1/2, p-S9-GSK3-beta, and p-S473-AKT using Alpha-LISA kits (Perkin Elmer). […] The antibodies stimulated p-GSK signal moderately (FIG. 6C).

[2] = target: T1, TREM2 (Homo sapiens, UniProt Q9NZC2); test: FACS binning on human TREM2-HEK cells (competition with R&D antibody); type: binding; conditions: epitope bin, 100 nM antibody
T1 construct: expressed in transfected cells
T1 sequence (Q9NZC2 19-230): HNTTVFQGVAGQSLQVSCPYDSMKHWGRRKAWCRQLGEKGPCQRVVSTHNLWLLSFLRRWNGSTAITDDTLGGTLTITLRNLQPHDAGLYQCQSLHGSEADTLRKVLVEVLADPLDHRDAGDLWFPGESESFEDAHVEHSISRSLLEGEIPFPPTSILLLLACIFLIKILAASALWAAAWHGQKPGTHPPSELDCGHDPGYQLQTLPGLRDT
T1 sequence (O43914 22-113 partner): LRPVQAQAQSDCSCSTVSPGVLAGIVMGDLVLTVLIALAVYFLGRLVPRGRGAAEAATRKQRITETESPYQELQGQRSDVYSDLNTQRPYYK
Description: HEK293 overexpressing human TREM2 (H6) were harvested by 0.05% trypsin and incubated at 37° C. incubator for 2 hours for surface TREM2 recovery. After incubation, cells were washed with 1×PBS and FACS buffer (PBS+0.5% BSA) with human Trustain FcX solution (Biolegend, Cat #422302) was added at a density of 10^6/mL. Cells were seeded at 100,000 cells per well in a 96-well round-bottom and incubated 20 minutes at room temperature. After incubation, anti-TREM2 antibodies (100 nM) were added to the cells and the cells were incubated for 45 minutes on ice. After incubation, rat anti-h/mTREM2-APC antibody (1:100, R&D, Cat # FAB17291A) was added to the cells, and the cells were incubated for 30 minutes on ice. After incubation, cells were washed with FACS buffer three times and resuspended in 10 μL FACS buffer, then analyzed by flow cytometry (BD FACSCanto II, San Jose, Calif.). 20,000 events were obtained for each sample. The ability to compete with R&D antibody was determined by MFI analysis compared to isotype or buffer control wells.

[3] = target: T1, TREM2; test: PAM and single point pSyk screen, HEK293 TREM2/DAP12 cells, antibody with or without PS/PC liposomes; type: cell-based
Description: Two days in advance of the experiment, HEK293 cells stably overexpressing TREM2 and DAP12 were plated at 40,000 cells/well on a 96 well poly-D-lysine-coated plate. In PAM experiments utilizing lipid vesicles, the lipid vesicles (see protocol below) were then mixed with the antibodies (at a constant concentration) on a 96-well plate using a Hamilton Nimbus liquid handler at a liposome concentration of 0, liposome EC20, EC50, or EC80 (see below) in PBS. In agonist experiments alone (no liposomes), antibodies were diluted without liposomes in PBS. The cells were washed 3× with HBSS with a Biotek 405/406 plate washer, then 50 μL of the liposome/antibody mixture was added per well using a Hamilton Nimbus liquid handler. The cell plate containing the liposome/antibodies was then transferred to a 37° C. incubator for 5 minutes. The liposome/antibody solution was removed by flicking the plate, and 40 μL lysis buffer (Cell Signaling Technologies, CST) was added using the liquid handler. […]
The liposomes were diluted in HBSS, and 50 μL of liposome solution was added per well to TREM2/DAP12-overexpressing cells using the Hamilton Nimbus liquid handler as in the above protocol. […] The pSyk response was measured as described above from 10 μL lysate, and the curve fit using a non-linear regression (4 parameter dose response) fit in Prism.

[4] = target: T2, hTREM2 (Homo sapiens, UniProt Q9NZC2); test: Octet binning (competition with R&D antibody on biotinylated TREM2-His); type: binding; conditions: epitope bin, 100 nM
T2 construct: The ecto domain (residues 19-172) of TREM2 (UniProtKB—Q9NZC2); secretion signal of mouse Ig kappa chain V-III (P01661 aa 1-20) (N); made in house; host or cells: Expi293F
T2 sequence (Q9NZC2 19-172): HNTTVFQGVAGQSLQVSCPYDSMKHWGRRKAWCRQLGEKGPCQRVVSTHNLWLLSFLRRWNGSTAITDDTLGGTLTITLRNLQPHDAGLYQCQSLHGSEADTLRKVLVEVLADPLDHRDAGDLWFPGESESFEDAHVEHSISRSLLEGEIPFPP
Description: Competition with R&D antibody was done by Octet Red using biotinylated human Trem2-His protein generated in house. Biotinylated human TREM2-His protein was captured on a streptavidin tip, and the tip was then incubated in either 100 nM of R&D Ab or buffer for 3 minutes, followed by incubation for 3 minutes in 100 nM of testing hybridoma. The difference of hybridoma binding curve with or without pre-binding to R&D antibody was analyzed to determine the epitope.

B1: RS9.F6: anti-TREM2 antibody clone; VH SEQ ID NO:24, VL SEQ ID NO:35 (antibody, V domains shown)
VH: QVQLQQPGAELVKPGASVKLSCKASGYTFTSYWMHWVKQSPGRGLEWIGRSDPTTGGTNYNEKFKTKATLTVDKPSSTAYMQLSSLTSDDSAVYYCVRTSGTGDYWGQGTSLTVSS
VL: DVVMTQTPLSLPVSLGDQASISCRSSQSLVHNNGNTFLHWYLQKPGQSPKLLIYKVSNRFSGVPDRFSGSGSGTDFTLKISRVEAEDLGVYFCSQTTHVPPTFGGGTKLEIK
- p-SYK signal [1]: robust
- pERK1/2 signal [1]: robust

- Bin by FACS [2]: 1-2
- p-Syk induction by antibody alone (in words) ([3]; no liposomes, HEK293 TREM2/DAP12): do not induce p-Syk
- Bin by Octet [4]: 1-2
B2: 21D11: anti-TREM2 antibody clone; VH SEQ ID NO:14, VL SEQ ID NO:25 (antibody, V domains shown)
VH: QVQLQQSGAELARPGASVKLSCKASGYTFTSYWIQWVKQRPGQGLEWIGTIYPGDGDARYTQKFKGKATLTADKSSSTTYMQLNSLASEDSAVYYCARNGITTAGYYAMDYWGQGTSVTVSS
VL: DIQMTQSPASLSVSVGETVTITCRASENIYSNLAWYQQKQGRSPQLLVYAATNLADGVPSRFSGSGSGTQYSLKINSLQSEDFGYYYCQHFWGTPYTFGGGTKVEIK

- Bin by FACS [2]: 3
- interaction with lipid ligand to activate p-Syk (in words) ([3]; FIG. 9A, 30 nM antibody, PS/PC liposomes, HEK cells): additive with lipid TREM2 activators
- Bin by Octet [4]: 3
B3: 3D3.A1: anti-TREM2 antibody clone; VH SEQ ID NO:18, VL SEQ ID NO:29 (antibody, V domains shown)
VH: EVQLQQSGPELVKPGASVKISCKTSGYTLSEYTMHWVIQSHGKSLEWIGGVIPNSGGTSYNQKFRDKASLTVDKSSSTAYLELRSLTSEDSAVYYCARGDDSYRRGYALDYWGQGTSVTVSS
VL: DIVMSQSPSSLAVSVGEKVTMSCKSSQSLLYSSNQKSYLAWYQQKPGQSPKLLIYWASTRESGVPDRFRGSGSGTDFTLTISSVKAEDLAVYYCQQYFSYPPTFGGGTKLEIK
- p-SYK signal [1]: robust
- pERK1/2 signal [1]: robust
